From the RNAGym collection of RNA variant scans (doi:10.1073/pnas.2313332121)
This sample holds only a part of the variants without activity.

B1: TPR 5TU (parent)
chain: GGAUCUUCUCGAUCUAACAAAAAAGACAAAUCUGCCACAAAGCUUGAGAGCAUCUUCGGAUGCAGAGGCGGCAGCCUUCGGUGGCGCGAUAGCGCCAACGUUCUCAACUAUGACACGCAAAACGCGUGCUCCGUUGAAUGGAGUUUAUCAUG

Variants of: B1
Assay: polymerase ribozyme fitness, log enrichment relative to wild type (log ratio); higher = more active; in vitro selection for triplet polymerase activity
In short: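 Mutant libraries for each subunit of a heterodimeric triplet polymerase ribozyme were made by PCR and then transcribed. Each library underwent one round of in vitro selection in triplicate: annealing with a biotinylated primer, the partner subunit and triplets, frozen incubation at −7 °C, gel excision of extended constructs, streptavidin-bead capture and RT-PCR. Input and output libraries were Illumina-sequenced, and only genotypes with ≥10 input reads and ≥1 read per output were kept. Fitness is the logarithm, base 2, of genotype enrichment over wild-type enrichment, computed from inverse-variance-weighted replicate averages.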

Variant	polymerase ribozyme fitness (log ratio)
U13G A28U A37C A41G C99U C129A U134C A150C	≤ -4.2
A12U A20C C36G A138C	-4.13
U13C C51U G59C G92U A115G G143C	-3.61
A12U A17U C18U G46U C51U A52U C75A G84C G100U C105U C118G A120U U134A A137G	≤ -4.2
C14U A19C U45A G84A C96A U109C	≤ -4.2
C14A A22G G86U G140C	≤ -4.2
C14A U53A C87G	≤ -4.2
C14U A19U G84A	-0.945
U13A A24U C96G	-1.33
C14G A23U G46U A66G G70A A91G C116G C131G	≤ -4.2
C14A G59U G94U C125G U134A U151G	≤ -4.2
C14G A52C C85A	≤ -4.2
U13G C14U A60C G88U A122U U134A	≤ -4.2
C14G G80A	-1.72
C14A G48C U56A C96A	-3.68
A12U A22G U45A A49U A115G	≤ -4.2
C14G U55C C57A A66G G81A C85U	≤ -4.2
C14U A19G U31C A39C G50A A66U G68U C93G	≤ -4.2
C14U C85A	-2.54
A12U A24G A49C C57U A73G G86U	≤ -4.2
U13C A22C U53A C116A	0.349
C14A G50A C87A A106U C108G A150C	≤ -4.2
C14U A16G U56A	-2.11
A12U G48U C51A G58C U61G C114U	≤ -4.2

Variant	polymerase ribozyme fitness (log ratio)
C14G A26G U44A C99G C103U	≤ -4.2
C14G C54G G71A C99A G100A	≤ -4.2
C14A U61A	-3.22
A12U A37C U45A U55A C85U G92A	≤ -4.2
A12U C57U	-0.208
U13A C54A A91C	≤ -4.2
C14G A97C A110U A120G U134A	≤ -4.2
U13G C51U U56A G86U A115U	≤ -4.2
A12U A29G A37U A47U U55A G84U A89G A120C G140C U144G	≤ -4.2
C14G G50A C54U C93A U139A	≤ -4.2
C14A A41C C51U A64U C76A A89G C95A G128A A150U	≤ -4.2
A12U A17C A24G C79U C118U	≤ -4.2
A12U A21G C95U C99A G126A C132U	-3.58
U13A U61A	-1.8
A12U A24U G81U G84A	0.337
C14U C51U U135C	-3.66
C14G C54U C72U	-3.4
U13G C14G C18U A22C C57U G59A C75A C93A G143U U146A G152U	≤ -4.2
A12U A21C G80C G81A C93G G140U	≤ -4.2
C14A C72U	-1.72
U13G C14A C72U G83A G117U	-2.88
C14G U53A G84C G92U C95A A107G A119U	≤ -4.2
C14G A60G	-2.34
C14U A39G C93U G143A	≤ -4.2

Variant	polymerase ribozyme fitness (log ratio)
C14G A28U A29C C32G U44G C63U G83A G86C C105U C108U G143U	≤ -4.2
C14U C32U U61C A91U	≤ -4.2
C14G C57G C87G	≤ -4.2
C14A A21G U53A C85U	-3.58
C14G A30U C36A U55A A73C C85U A119G	≤ -4.2
C14A U55G U56A G92U A150G	-4.11
A12U C38A G59U C87A A97U	≤ -4.2
U13C A16U U33A C54G G67C G133U U144A	≤ -4.2
U13G A49U C57U C87G C118U U139C U151A	≤ -4.2
U13A A37U C96U G126U	-2.85
U13G A16U U33G G50C G81C G143A	≤ -4.2
U13G A23U A26C C36A C57A G86U C95U A121C	≤ -4.2
C14G A19G A20C G117A G124C	-3.94
C14G A22U A39U	≤ -4.2
C14G U45G G46A C54U C72A U139G A142U	≤ -4.2
A12U G58C C76U U102G A138C	≤ -4.2
C14G A52C C69U U77G G92A	≤ -4.2
A12U C36U U61G G67A U82G A106G A138U	-4.08
C14G G86U	-3.77
U13G A23U C35A C93U C99U U127G	≤ -4.2
C14G A17C	-2.89
C14A A29U C51A C96G A115C C118A G141A	≤ -4.2
U13A C72U U82C	-1.38
U13A A47G U82G C95G	-3.73

Variant	polymerase ribozyme fitness (log ratio)
U13G A52G G59C C95A C118U	-2.5
U13A C18U C51U G86A	-2.27
A12U G117C U134C	-0.516
C14A A26G G67A A73U G86C A121U C123G A138C U146A	≤ -4.2
C14G A17C U44A G81A C85U C125A	≤ -4.2
C14G U56A C96U	-3.43
C14G C36U C85U G136U A138G	≤ -4.2
A12U G50A C85A C87U G133C	≤ -4.2
C14G A23U A41U U78C G80C G81U C96U A110U G143U	≤ -4.2
U13G G58C A122C	-1.1
C14A A17C U31A C57U C96G	-3.28
U13C G88U	-3.96
A12U A47U C95U A115G	-2.31
C14U A52G U53G G74A A91C C96U G141U	≤ -4.2
U13G A17U G88A C96G	≤ -4.2
C14U C51U U56A A119G	-2.23
C14U A66U U78C	≤ -4.2
U13A C93U	-0.77
C14G C54U G68C C87U	≤ -4.2
A12U C105G C118A	-2.62
U13A A41C C43G A60C A138G A150G	≤ -4.2
U13G A23U A37C G83A C96U	≤ -4.2
C14G C54U A64G A66C U82G A97G G140U	≤ -4.2
C14U A89U C93U	-3.88

Variant	polymerase ribozyme fitness (log ratio)
C14G G92C	-2.66
C14G G92A	-4.15
U13G A49C G152U	≤ -4.2
U13A A20G C63G A91U G136C	≤ -4.2
U13G C36U A52G G70A G84U	-0.614
A12U C14G G25C C85G G94A U104C A106U C116G U139C	≤ -4.2
U13A A23U U31A A37C G84U C125A G140A G152U	≤ -4.2
C14G G50A	-3.35
C14A C54G G62A G86U U101G G141U	≤ -4.2
A12U U55A	-0.315
C14G G80U G84U C132A	≤ -4.2
C14U A22G	-3.07
C14G U31G G86C U102G	≤ -4.2
C14U A23U A37C A52G G58C C85G A119C A137U	≤ -4.2
C14G G50U U56G G59C C108U	≤ -4.2
C14U A16U G81A A147U	-1.35
C14G C32A U61G A120C	≤ -4.2
A12U A28G U55A C63U C96G G100A	≤ -4.2
A12U A29C C87A G94U	≤ -4.2
U13G A19U C51U A97U	-2.04
A12U C38U C129G	≤ -4.2
C14A C105U	-0.869
A12U G59C A89U A91U U101C U144C	≤ -4.2
C14G A19G C43U G86A U104G C108G A122C	≤ -4.2

Variant	polymerase ribozyme fitness (log ratio)
C14G A26G C27A U44A U45C C72A U151G	≤ -4.2
C14U A91G C116U U134A	≤ -4.2
C14G G34A C85A	≤ -4.2
C14G A26U A28G C35A U56C C57U U90G	≤ -4.2
C14G C96U U134C	-2.72
U13G U44A G68C G88A C95A U144A	≤ -4.2
U13G A47G G48A A89C C93U C99G	≤ -4.2
U13G C32U G88C A97U	≤ -4.2
U13A A47U G86U C132U G140A	-3.17
U13C U56A C72U C93A C96U	-3.76
C14A C27G A28G C43U G81A G84U U109G G143A	≤ -4.2
C14G U53A G94A G124U	-3.37
U13G G42C A49U G65A G71A G92A	-3.74
U13C G62C C99A U148G	≤ -4.2
C14U A41U C69A C85U	≤ -4.2
C14A G59C C85A C99U G141U U146G	≤ -4.2
C14G A24G A26G A39C A66C C105U A107U	≤ -4.2
U13G A19U A22C G46C G81C C95U G140C	≤ -4.2
U13A G58U C96A A120U U145C	-1.29
C14G A29U	-3.98
U13A C54A G84U G88U	≤ -4.2
U13C A22G U61A G83A	-3.83
U13G G42A A49G U56A C57A G80A	≤ -4.2
U13G A40C A73G C85U	-2.84

Variant	polymerase ribozyme fitness (log ratio)
A12U C14A G58C C85A	-3.13
C14G U33C C87A A91C	≤ -4.2
C14G C85A	-3.74
U13A A21U U55C G62C U82A G100C C105G G112U C131U	≤ -4.2
C14G U44G U53A C75A U90C C93U	≤ -4.2
C14U A73G C75G C87A A98G U111G	≤ -4.2
C14A A19U U33G C69A C75G C96A A97G A106C G140C	≤ -4.2
C14A A16U G86A C87G	-3.84
A12U A39U U55A G67U G86U C103U	≤ -4.2
A12U U53A	-1.75
C14A A49C G59C G62A A91U G100A C114U A137G U146C	≤ -4.2
C14A C43A C51U C54G C93A U145C A150C	≤ -4.2
A12U A22G C35U G58A A91C A98G C116G	-4.07
U13G G84U U135A G136A	-2.14
U13A A24G C27U A39C G50A G84U	≤ -4.2
C14G A47C A52G A115C A119G	≤ -4.2
A12U G25U A52C U56A G67A A91G C103G	≤ -4.2
A12U G81A C85A C99U	-1.62
C14A G58C C93U	-2.75
C14A A21C A64G C75U C76G C85U C105U A120U	≤ -4.2
C14G C32G C76A U139A	≤ -4.2
C14G G50U C87A G112C C123U U148G	≤ -4.2
C14A U55A G68A A107U	≤ -4.2
